Molecular target: the molecule itself
Experiment: nonreducing SDS-PAGE + capillary gel electrophoresis (2100 Bioanalyzer); purified His6-tagged BsTrxA proteins alone, ~2.5 μg a lane, nonreducing conditions (no DTT, no AMS); peak integration for dimer-to-monomer ratios; dimer to monomers (Fig. 2a)

| Protein | stoichiometry N |
| --- | --- |
| C32S single-mutant BsTrxA, C-terminal His6-tag (enzyme, B. subtilis 168, UniProt P14949 1-104, looked up, In the homodimer the two chains are joined by a Cys29-Cys29 disulfide bond (crystal structure 2VOC); Vector probably adds Leu-Glu before His6 (surmised); also called C32S BsTrxA; TrxA C32S; source: E. coli BL21(DE3), purified (nickel IMAC HisTrap HP, Superdex 75 gel filtration); not shown: His6, C-terminal, kept) MAIVKATDQSFSAETSEGVVLADFWAPWCGPSKMIAPVLEELDQEMGDKLKIVKIDVDENQETAGKYGVMSIPTLLVLKDGEVVETSVGFKPKEALQELVNKHL | 2 |
| C29S single-mutant BsTrxA, C-terminal His6-tag (enzyme, B. subtilis 168, UniProt P14949 1-104, looked up, Vector probably adds Leu-Glu before His6 (surmised); also called C29S BsTrxA; BsTrxA(C29S); source: E. coli BL21(DE3), purified (nickel IMAC HisTrap HP, Superdex 75 gel filtration); not shown: His6, C-terminal, kept) MAIVKATDQSFSAETSEGVVLADFWAPWSGPCKMIAPVLEELDQEMGDKLKIVKIDVDENQETAGKYGVMSIPTLLVLKDGEVVETSVGFKPKEALQELVNKHL | 2 |

From PMC2896474, “Thioredoxin A Active-Site Mutants Form Mixed Disulfide Dimers That Resemble Enzyme–Substrate Reaction Intermediates” (Journal of Molecular Biology, 2008)
